Reference: patent publication US10941182 (Amgen, dated 2021)
Starred links: 1 amine or outer side, 2 acyl side, 3 side chain; linkers in the order of their positions; H or OH if unused. Non-standard residues stand in square brackets, D forms with d. *: point of attachment. dBip = N[C@H](Cc1ccc(-c2ccccc2)cc1)C(=O)O; Oic = O=C(O)[C@@H]1C[C@@H]2CCCC[C@@H]2N1; Phe(4-I) = N[C@@H](Cc1ccc(I)cc1)C(=O)O; γGlu = O=C(O)[C@H](CCC(=O)[*:2])N[*:1]; Tridecanoyl = CCCCCCCCCCCCC(=O)*; hArg = N=C(N)NCCCC[C@H](N)C(=O)O; NMeL = CN[C@@H](CC(C)C)C(=O)O; Nle = CCCC[C@H](N)C(=O)O; AEEA = NCCOCCOCC(=O)O

What was measured:
[1] = biological target: T1, human APJ receptor (human, UniProt P35414 1-380); assay: cell-based or functional assay
T1 sequence (looked up): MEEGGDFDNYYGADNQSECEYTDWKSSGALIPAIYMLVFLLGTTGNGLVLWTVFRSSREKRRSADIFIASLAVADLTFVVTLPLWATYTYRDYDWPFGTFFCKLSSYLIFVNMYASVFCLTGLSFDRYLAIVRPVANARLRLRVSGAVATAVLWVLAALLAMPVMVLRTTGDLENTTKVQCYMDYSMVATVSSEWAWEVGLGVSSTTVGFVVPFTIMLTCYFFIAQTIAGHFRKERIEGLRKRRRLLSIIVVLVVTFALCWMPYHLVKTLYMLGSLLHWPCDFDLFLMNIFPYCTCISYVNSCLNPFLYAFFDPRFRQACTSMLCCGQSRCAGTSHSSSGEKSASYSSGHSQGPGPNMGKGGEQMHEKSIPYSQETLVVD

[2] = biological target: T2, rat APJ receptor (rat, UniProt Q9JHG3 1-377); assay: cell-based or functional assay
T2 sequence (looked up): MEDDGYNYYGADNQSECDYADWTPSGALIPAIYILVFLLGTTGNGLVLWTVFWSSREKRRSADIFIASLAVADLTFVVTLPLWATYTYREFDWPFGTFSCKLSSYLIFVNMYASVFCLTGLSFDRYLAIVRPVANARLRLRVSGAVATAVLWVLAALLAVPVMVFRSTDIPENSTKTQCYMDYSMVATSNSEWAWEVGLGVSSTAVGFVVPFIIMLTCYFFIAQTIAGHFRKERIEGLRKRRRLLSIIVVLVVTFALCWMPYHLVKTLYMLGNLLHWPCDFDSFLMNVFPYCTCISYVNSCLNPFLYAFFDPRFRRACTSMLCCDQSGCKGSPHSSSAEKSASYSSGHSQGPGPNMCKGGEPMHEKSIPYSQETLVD

B1: SEQ ID NO: 334 (peptide)
peptide: Tridecanoyl-[γGlu][AEEA][AEEA][hArg][dR]Q[Nle]P[dR][NMeL]AAKG[Oic][Phe(4-I)]P[dBip]-OH
SMILES: CCCCCCCCCCCCC(=O)N[C@@H](CCC(=O)NCCOCCOCC(=O)NCCOCCOCC(=O)N[C@@H](CCCCNC(=N)N)C(=O)N[C@H](CCCNC(=N)N)C(=O)N[C@@H](CCC(N)=O)C(=O)N[C@@H](CCCC)C(=O)N1CCC[C@H]1C(=O)N[C@H](CCCNC(=N)N)C(=O)N(C)[C@@H](CC(C)C)C(=O)N[C@@H](C)C(=O)N[C@@H](C)C(=O)N[C@@H](CCCCN)C(=O)NCC(=O)N1[C@H](C(=O)N[C@@H](Cc2ccc(I)cc2)C(=O)N2CCC[C@H]2C(=O)N[C@H](Cc2ccc(-c3ccccc3)cc2)C(=O)O)C[C@@H]2CCCC[C@@H]21)C(=O)O
How did the “EC50 Human APJ Receptor” value [1] turn out when B1 was run?
The value was 34.1 nM.

What about the “EC50 Rat APJ Receptor” value [2] of the same binder?
The value was 44.7 nM.

B2: SEQ ID NO: 324 (peptide)
peptide: Tridecanoyl-[γGlu][AEEA][AEEA][hArg][dR]Q[hArg]P[dR][NMeL]SA[Nle]G[Oic][Phe(4-I)]P[dBip]-OH
SMILES: CCCCCCCCCCCCC(=O)N[C@@H](CCC(=O)NCCOCCOCC(=O)NCCOCCOCC(=O)N[C@@H](CCCCNC(=N)N)C(=O)N[C@H](CCCNC(=N)N)C(=O)N[C@@H](CCC(N)=O)C(=O)N[C@@H](CCCCNC(=N)N)C(=O)N1CCC[C@H]1C(=O)N[C@H](CCCNC(=N)N)C(=O)N(C)[C@@H](CC(C)C)C(=O)N[C@@H](CO)C(=O)N[C@@H](C)C(=O)N[C@@H](CCCC)C(=O)NCC(=O)N1[C@H](C(=O)N[C@@H](Cc2ccc(I)cc2)C(=O)N2CCC[C@H]2C(=O)N[C@H](Cc2ccc(-c3ccccc3)cc2)C(=O)O)C[C@@H]2CCCC[C@@H]21)C(=O)O
What does the source list for B2?
EC50 Human APJ Receptor [1]: 14.9 nM; EC50 Rat APJ Receptor [2]: 20.4 nM

B3: SEQ ID NO: 322 (peptide)
peptide: Tridecanoyl-[γGlu][AEEA][AEEA][hArg][dR]Q[Nle]P[dR][NMeL]AHKG[Oic][Phe(4-I)]P[dBip]-OH
SMILES: CCCCCCCCCCCCC(=O)N[C@@H](CCC(=O)NCCOCCOCC(=O)NCCOCCOCC(=O)N[C@@H](CCCCNC(=N)N)C(=O)N[C@H](CCCNC(=N)N)C(=O)N[C@@H](CCC(N)=O)C(=O)N[C@@H](CCCC)C(=O)N1CCC[C@H]1C(=O)N[C@H](CCCNC(=N)N)C(=O)N(C)[C@@H](CC(C)C)C(=O)N[C@@H](C)C(=O)N[C@@H](Cc1c[nH]cn1)C(=O)N[C@@H](CCCCN)C(=O)NCC(=O)N1[C@H](C(=O)N[C@@H](Cc2ccc(I)cc2)C(=O)N2CCC[C@H]2C(=O)N[C@H](Cc2ccc(-c3ccccc3)cc2)C(=O)O)C[C@@H]2CCCC[C@@H]21)C(=O)O
Which “EC50 Human APJ Receptor” value [1] does the source give for B3 here?
Its value is 16.3 nM.

And the “EC50 Rat APJ Receptor” value [2]?
Its value is 26.5 nM.

B4: SEQ ID NO: 313 (peptide)
peptide: Tridecanoyl-[γGlu][AEEA][AEEA][hArg][dR]Q[hArg]PK[NMeL]SH[Nle]G[Oic][Phe(4-I)]P[dBip]-OH
SMILES: CCCCCCCCCCCCC(=O)N[C@@H](CCC(=O)NCCOCCOCC(=O)NCCOCCOCC(=O)N[C@@H](CCCCNC(=N)N)C(=O)N[C@H](CCCNC(=N)N)C(=O)N[C@@H](CCC(N)=O)C(=O)N[C@@H](CCCCNC(=N)N)C(=O)N1CCC[C@H]1C(=O)N[C@@H](CCCCN)C(=O)N(C)[C@@H](CC(C)C)C(=O)N[C@@H](CO)C(=O)N[C@@H](Cc1c[nH]cn1)C(=O)N[C@@H](CCCC)C(=O)NCC(=O)N1[C@H](C(=O)N[C@@H](Cc2ccc(I)cc2)C(=O)N2CCC[C@H]2C(=O)N[C@H](Cc2ccc(-c3ccccc3)cc2)C(=O)O)C[C@@H]2CCCC[C@@H]21)C(=O)O
With B4 as the binder, how does the “EC50 Human APJ Receptor” value [1] read?
The value was 14.8 nM.

And the “EC50 Rat APJ Receptor” value [2]?
The value was 10.4 nM.

B5: SEQ ID NO: 330 (peptide)
peptide: Tridecanoyl-[γGlu][AEEA][AEEA][hArg][dR]Q[hArg]P[dR][NMeL]AA[Nle]G[Oic][Phe(4-I)]P[dBip]-OH
SMILES: CCCCCCCCCCCCC(=O)N[C@@H](CCC(=O)NCCOCCOCC(=O)NCCOCCOCC(=O)N[C@@H](CCCCNC(=N)N)C(=O)N[C@H](CCCNC(=N)N)C(=O)N[C@@H](CCC(N)=O)C(=O)N[C@@H](CCCCNC(=N)N)C(=O)N1CCC[C@H]1C(=O)N[C@H](CCCNC(=N)N)C(=O)N(C)[C@@H](CC(C)C)C(=O)N[C@@H](C)C(=O)N[C@@H](C)C(=O)N[C@@H](CCCC)C(=O)NCC(=O)N1[C@H](C(=O)N[C@@H](Cc2ccc(I)cc2)C(=O)N2CCC[C@H]2C(=O)N[C@H](Cc2ccc(-c3ccccc3)cc2)C(=O)O)C[C@@H]2CCCC[C@@H]21)C(=O)O
For B5, which “EC50 Human APJ Receptor” value [1] is on record?
Its value is 39.7 nM.

What about the “EC50 Rat APJ Receptor” value [2] of the same binder?
Its value is 56.1 nM.

B6: SEQ ID NO: 318 (peptide)
peptide: Tridecanoyl-[γGlu][AEEA][AEEA][hArg][dR]Q[hArg]P[dR][NMeL]AH[Nle]G[Oic][Phe(4-I)]P[dBip]-OH
SMILES: CCCCCCCCCCCCC(=O)N[C@@H](CCC(=O)NCCOCCOCC(=O)NCCOCCOCC(=O)N[C@@H](CCCCNC(=N)N)C(=O)N[C@H](CCCNC(=N)N)C(=O)N[C@@H](CCC(N)=O)C(=O)N[C@@H](CCCCNC(=N)N)C(=O)N1CCC[C@H]1C(=O)N[C@H](CCCNC(=N)N)C(=O)N(C)[C@@H](CC(C)C)C(=O)N[C@@H](C)C(=O)N[C@@H](Cc1c[nH]cn1)C(=O)N[C@@H](CCCC)C(=O)NCC(=O)N1[C@H](C(=O)N[C@@H](Cc2ccc(I)cc2)C(=O)N2CCC[C@H]2C(=O)N[C@H](Cc2ccc(-c3ccccc3)cc2)C(=O)O)C[C@@H]2CCCC[C@@H]21)C(=O)O
Which “EC50 Human APJ Receptor” value [1] does the source give for B6 here?
The value was 7.44 nM.

And the “EC50 Rat APJ Receptor” value [2]?
Its value is 45.9 nM.

B7: SEQ ID NO: 312 (peptide)
peptide: Tridecanoyl-[γGlu][AEEA][AEEA][hArg][dR]Q[hArg]P[dR][NMeL]SH[Nle]G[Oic][Phe(4-I)]P[dBip]-OH
SMILES: CCCCCCCCCCCCC(=O)N[C@@H](CCC(=O)NCCOCCOCC(=O)NCCOCCOCC(=O)N[C@@H](CCCCNC(=N)N)C(=O)N[C@H](CCCNC(=N)N)C(=O)N[C@@H](CCC(N)=O)C(=O)N[C@@H](CCCCNC(=N)N)C(=O)N1CCC[C@H]1C(=O)N[C@H](CCCNC(=N)N)C(=O)N(C)[C@@H](CC(C)C)C(=O)N[C@@H](CO)C(=O)N[C@@H](Cc1c[nH]cn1)C(=O)N[C@@H](CCCC)C(=O)NCC(=O)N1[C@H](C(=O)N[C@@H](Cc2ccc(I)cc2)C(=O)N2CCC[C@H]2C(=O)N[C@H](Cc2ccc(-c3ccccc3)cc2)C(=O)O)C[C@@H]2CCCC[C@@H]21)C(=O)O
How did the “EC50 Human APJ Receptor” value [1] turn out when B7 was run?
Its value is 13.6 nM.

And the “EC50 Rat APJ Receptor” value [2]?
Its value is 10.6 nM.

B8: SEQ ID NO: 319 (peptide)
peptide: Tridecanoyl-[γGlu][AEEA][AEEA][hArg][dR]Q[hArg]PK[NMeL]AH[Nle]G[Oic][Phe(4-I)]P[dBip]-OH
SMILES: CCCCCCCCCCCCC(=O)N[C@@H](CCC(=O)NCCOCCOCC(=O)NCCOCCOCC(=O)N[C@@H](CCCCNC(=N)N)C(=O)N[C@H](CCCNC(=N)N)C(=O)N[C@@H](CCC(N)=O)C(=O)N[C@@H](CCCCNC(=N)N)C(=O)N1CCC[C@H]1C(=O)N[C@@H](CCCCN)C(=O)N(C)[C@@H](CC(C)C)C(=O)N[C@@H](C)C(=O)N[C@@H](Cc1c[nH]cn1)C(=O)N[C@@H](CCCC)C(=O)NCC(=O)N1[C@H](C(=O)N[C@@H](Cc2ccc(I)cc2)C(=O)N2CCC[C@H]2C(=O)N[C@H](Cc2ccc(-c3ccccc3)cc2)C(=O)O)C[C@@H]2CCCC[C@@H]21)C(=O)O
How did the “EC50 Human APJ Receptor” value [1] turn out when B8 was run?
The value was 73.2 nM.

What about the “EC50 Rat APJ Receptor” value [2] of the same binder?
Its value is 63.1 nM.

B9: SEQ ID NO: 325 (peptide)
peptide: Tridecanoyl-[γGlu][AEEA][AEEA][hArg][dR]Q[hArg]PK[NMeL]SA[Nle]G[Oic][Phe(4-I)]P[dBip]-OH
SMILES: CCCCCCCCCCCCC(=O)N[C@@H](CCC(=O)NCCOCCOCC(=O)NCCOCCOCC(=O)N[C@@H](CCCCNC(=N)N)C(=O)N[C@H](CCCNC(=N)N)C(=O)N[C@@H](CCC(N)=O)C(=O)N[C@@H](CCCCNC(=N)N)C(=O)N1CCC[C@H]1C(=O)N[C@@H](CCCCN)C(=O)N(C)[C@@H](CC(C)C)C(=O)N[C@@H](CO)C(=O)N[C@@H](C)C(=O)N[C@@H](CCCC)C(=O)NCC(=O)N1[C@H](C(=O)N[C@@H](Cc2ccc(I)cc2)C(=O)N2CCC[C@H]2C(=O)N[C@H](Cc2ccc(-c3ccccc3)cc2)C(=O)O)C[C@@H]2CCCC[C@@H]21)C(=O)O
B9 was tested. Which “EC50 Human APJ Receptor” value [1] did it give?
The value was 3.96 nM.

What about the “EC50 Rat APJ Receptor” value [2] of the same binder?
The value was 4.76 nM.

B10: SEQ ID NO: 331 (peptide)
peptide: Tridecanoyl-[γGlu][AEEA][AEEA][hArg][dR]Q[hArg]PK[NMeL]AA[Nle]G[Oic][Phe(4-I)]P[dBip]-OH
SMILES: CCCCCCCCCCCCC(=O)N[C@@H](CCC(=O)NCCOCCOCC(=O)NCCOCCOCC(=O)N[C@@H](CCCCNC(=N)N)C(=O)N[C@H](CCCNC(=N)N)C(=O)N[C@@H](CCC(N)=O)C(=O)N[C@@H](CCCCNC(=N)N)C(=O)N1CCC[C@H]1C(=O)N[C@@H](CCCCN)C(=O)N(C)[C@@H](CC(C)C)C(=O)N[C@@H](C)C(=O)N[C@@H](C)C(=O)N[C@@H](CCCC)C(=O)NCC(=O)N1[C@H](C(=O)N[C@@H](Cc2ccc(I)cc2)C(=O)N2CCC[C@H]2C(=O)N[C@H](Cc2ccc(-c3ccccc3)cc2)C(=O)O)C[C@@H]2CCCC[C@@H]21)C(=O)O
Which “EC50 Human APJ Receptor” value [1] does the source give for B10 here?
Its value is 24.7 nM.

And the “EC50 Rat APJ Receptor” value [2]?
The value was 18.1 nM.
